Here are results for one substance from article PMC3597701.

The assay deals with origin recognition complex (ORC) (S. cerevisiae) (UniProt P54784). Put plainly: cross-linking.

The substance “MCM2–7 (mini-chromosome maintenance proteins 2–7) with a single HA tag at the N-terminus of Mcm3, P29469;P24279;P30665;P29496;P53091;P38132” gave a stoichiometry N (MCM2–7 hexamer per ORC) of 1.
